Measurements taken from US20250339569A1 (3B PHARMACEUTICALS, published 2025).
Starred links: 1 amine or outer side, 2 acyl side, 3 side chain; linkers in the order of their positions; H or OH if unused. Positions of bridges follow the written chain, without caps; N, C: chain ends. Non-standard residues stand in square brackets, D forms with d. Primed or numbered codes have the meaning given here. No end group written: not given here. ξ: configuration not given here. *: point of attachment. Af3(MCprAc) = 3-aminophenylalanine with 1-methylcyclopropane-1-carbonyl on the ring amine, CC1(C(=O)Nc2cccc(C[C@H](N[*:1])C(=O)[*:2])c2)CC1; APAc″ = 2-(4-(amino)piperidin-1-yl)acetic acid, NC1CCN(CC(=O)*)CC1; DOTA = O=C(O)CN1CCN(CC(=O)O)CCN(CC(=O)*)CCN(CC(=O)O)CC1; Phe(3,4-Cl2) = N[C@@H](Cc1ccc(Cl)c(Cl)c1)C(=O)O; Phe(3-CF3) = N[C@@H](Cc1cccc(C(F)(F)F)c1)C(=O)O; Phe(4-CF3) = N[C@@H](Cc1ccc(C(F)(F)F)cc1)C(=O)O; Trp(7-aza) = N[C@@H](Cc1c[nH]c2ncccc12)C(=O)O; ξTrp(7-Me) = Cc1cccc2c(CC(N)C(=O)O)c[nH]c12; Bip = N[C@@H](Cc1ccc(-c2ccccc2)cc1)C(=O)O; ξTrp(1-Me) = Cn1cc(CC(N)C(=O)O)c2ccccc21; Dip = N[C@H](C(=O)O)C(c1ccccc1)c1ccccc1; Phe(4-I) = N[C@@H](Cc1ccc(I)cc1)C(=O)O; dmo = (R)-dimethylornithine (D form); mXylylene = c1cc(C[*:1])cc(C[*:2])c1; Orn(Me2) = CN(C)CCC[C@H](N)C(=O)O; tBuAla = CC(C)(C)C[C@H](N)C(=O)O; Cha = N[C@@H](CC1CCCCC1)C(=O)O; NMeD = CN[C@@H](CC(=O)O)C(=O)O; Pen = CC(C)(S)[C@H](N)C(=O)O; hSer = N[C@@H](CCO)C(=O)O; AGLU′ = not defined here; APAc = not defined here; Dap = NC[C@H](N)C(=O)O

B1: 3BP-4257 (peptide)
peptide: {DOTA}-SDCE[dP]DWLTW[Dap]C-NH2
modifications: lactam 11-2; linker 3-12 via mXylylene
SMILES: CC(C)C[C@@H]1NC(=O)[C@H](Cc2c[nH]c3ccccc23)NC(=O)[C@H](CC(=O)O)NC(=O)[C@H]2CCCN2C(=O)[C@H](CCC(=O)O)NC(=O)[C@@H]2CSCc3cccc(c3)CSC[C@@H](C(N)=O)NC(=O)[C@H](CNC(=O)C[C@H](NC(=O)[C@H](CO)NC(=O)CN3CCN(CC(=O)O)CCN(CC(=O)O)CCN(CC(=O)O)CC3)C(=O)N2)NC(=O)[C@H](Cc2c[nH]c3ccccc23)NC(=O)[C@H]([C@@H](C)O)NC1=O
B2: 3BP-3963 (peptide)
peptide: Ac-VYCE[dP]KWLEWS[Pen]-NH2
modifications: linker 3-12 via mXylylene; lactam 6-9
SMILES: CC(=O)N[C@H](C(=O)N[C@@H](Cc1ccc(O)cc1)C(=O)N[C@H]1CSCc2cccc(c2)CSC(C)(C)[C@@H](C(N)=O)NC(=O)[C@H](CO)NC(=O)[C@H](Cc2c[nH]c3ccccc23)NC(=O)[C@@H]2CCC(=O)NCCCC[C@H](NC(=O)[C@H]3CCCN3C(=O)[C@H](CCC(=O)O)NC1=O)C(=O)N[C@@H](Cc1c[nH]c3ccccc13)C(=O)N[C@@H](CC(C)C)C(=O)N2)C(C)C
B3: 3BP-4178 (peptide)
peptide: [dP]PVYCE[dP]DWLTWSC
modifications: linker 5-14 via mXylylene; not fully specified (bridges)
notes: Bracket use differs from the other compounds; the outer cycle is read as closing pro1 with Cys14

Molecular target: human carbonic anhydrase 9 (CAIX) (human, UniProt Q16790 38-459)
Experiment: FACS competition on HT-29 cells, competitor tracer 3BP-2776; category A = pIC50 >8.0
Description: CAIX-expressing human HT-29 colorectal cancer cells (DSMZ, RRID: CVCL_0320) were cultured in McCoys's 5A modified medium (Biochrom, #F1015) including 10% fetal calf serum (FCS), 2 mM L-glutamine, 100 U/ml penicillin and 100 μg/mL streptomycin. Cells were detached with Accutase (Biolegend, #423201) and washed in FACS buffer (PBS including 1% FCS). Cells were diluted in FACS buffer to a final concentration of 500.000 cells per ml. 200 μL of the cell suspension were transferred to a u-shaped non-binding 96-well plate (Greiner) and cells were washed in ice-cold FACS buffer.
When biotinylated compounds were used an additional incubation step with 1 μg/mL APC-Streptavidin (Miltenyi; #130-106-791) in 50 μL FACS buffer for 30 minutes on ice was performed.
Cells were washed twice with ice-cold FACS buffer and analyzed in an Attune NxT flow cytometer (Thermo Fisher). Median fluorescence intensities (MFI) of the APC/Cy5-channel were calculated by Attune NxT software.

| Binder | pIC50 [pic50] |
| --- | --- |
| {DOTA-APAc″}-VDCE[dP]DWLTW[Dap]C-NH2 (lactam 2-11; linker 3-12 via mXylylene) [3BP-4174] | > 8 |
| {DOTA-APAc}-VYCE[dP]DWLTW[Orn(Me2)]C-NH2 (linker 3-12 via mXylylene; reading uncertain) [3BP-4100] | > 8 |
| B1 | > 8 |
| {DOTA-APAc″}-VECE[dP]DWLTW[Dap]C-NH2 (lactam 2-11; linker 3-12 via mXylylene) [3BP-4175] | > 8 |
| B2 | > 8 |
| {DOTA-APAc″}-VYCE[dP]D[ξTrp(7-Me)]LTWSC-NH2 (linker 3-12 via mXylylene; not fully specified) [3BP-4158] | > 8 |
| {DOTA-APAc″}-VYCE[dP]D[ξTrp(1-Me)]LTWSC-NH2 (linker 3-12 via mXylylene; not fully specified) [3BP-4144] | > 8 |
| {DOTA-APAc}-VYC[Orn(Me2)][dP]DWLTWSC-NH2 (linker 3-12 via mXylylene; reading uncertain) [3BP-4096] | > 8 |
| {DOTA-APAc}-VYCE[dP]D[Phe(4-CF3)]LTWSC-NH2 (linker 3-12 via mXylylene; not fully specified; reading uncertain) [3BP-4139] | > 8 |
| {DOTA-APAc}-VYCE[dP]D[Dip]LTWSC-NH2 (linker 3-12 via mXylylene; not fully specified; reading uncertain) [3BP-4132] | > 8 |
| {DOTA-APAc″}-VYCE[dP]D[Af3(MCprAc)]LTWSC-NH2 (linker 3-12 via mXylylene) [3BP-4234] | > 8 |
| {DOTA-APAc}-V[Orn(Me2)]CE[dP]DWLTWSC-NH2 (linker 3-12 via mXylylene; reading uncertain) [3BP-4095] | > 8 |
| {DOTA-APAc″}-V[Dap]CE[dP]DWLTWDC-NH2 (lactam 2-11; linker 3-12 via mXylylene) [3BP-4176] | > 8 |
| {DOTA-APAc″}-V[Dap]CE[dP]DWLTWEC-NH2 (lactam 2-11; linker 3-12 via mXylylene) [3BP-4177] | > 8 |
| {DOTA-APAc″}-VYCE[dP]DWLT[Trp(7-aza)]SC-NH2 (linker 3-12 via mXylylene) [3BP-4159] | > 8 |
| {DOTA-APAc}-VYCE(AGLU′)[dP]DWLTWSC-NH2 (linker 3-12 via mXylylene; reading uncertain) [3BP-4113] | > 8 |
| {DOTA-APAc″}-VYCE[dP]DW[Cha]TWSC-NH2 (linker 3-12 via mXylylene) [3BP-4143] | > 8 |
| {DOTA-APAc}-VYCE[dP]DWL[Orn(Me2)]WSC-NH2 (linker 3-12 via mXylylene; reading uncertain) [3BP-4099] | > 8 |
| {DOTA-APAc}-VYCE[dP]D[Phe(4-I)]LTWSC-NH2 (linker 3-12 via mXylylene; not fully specified; reading uncertain) [3BP-4134] | > 8 |
| {DOTA-APAc}-VYCE[dP]D[Phe(3,4-Cl2)]LTWSC-NH2 (linker 3-12 via mXylylene; not fully specified; reading uncertain) [3BP-4133] | > 8 |
| {DOTA-APAc}-VYCE[dP]D[Phe(3-CF3)]LTWSC-NH2 (linker 3-12 via mXylylene; not fully specified; reading uncertain) [3BP-4135] | > 8 |
| {DOTA-APAc}-VYCE[dP][NMeD]WLTWSC-NH2 (linker 3-12 via mXylylene; reading uncertain) [3BP-4107] | > 8 |
| {DOTA-APAc}-VYC[hSer][dP]DWLTWSC-NH2 (linker 3-12 via mXylylene; reading uncertain) [3BP-4101] | > 8 |
| B3 | > 8 |
| {DOTA-APAc}-VYCE[dmo]DWLTWSC-NH2 (linker 3-12 via mXylylene; reading uncertain) [3BP-4097] | > 8 |
| {DOTA-APAc}-VYCE[dP]D[Bip]LTWSC-NH2 (linker 3-12 via mXylylene; not fully specified; reading uncertain) [3BP-4131] | > 8 |
| {DOTA-APAc″}-VYCE[dP]DW[tBuAla]TWSC-NH2 (linker 3-12 via mXylylene) [3BP-4142] | > 8 |
